# Source: article PMC3854871, “Knockdown of Asparagine Synthetase A Renders Trypanosoma brucei Auxotrophic to Asparagine” (PLoS Neglected Tropical Diseases, 2013)
# B1: TcAS-A (Trypanosoma cruzi strain CL Brener) (protein)
# chain: MTSGDPAAFIQLQEQIVTVKQVFSSALAKELNLVEVQAPLLACCGDGTQDNLSGTEKAVQVHVKGIPDSKFEVVHSLAKWKRQTLGDHKFPVGQGIYVHMKALRVEEELDTTHSVFVDQWDWELVMPPQERNLTFLKNTVQRLYAAIRQTEEAICSKYNLDRVLPANIQFLHAEHLLKMYPEMNMKERERAIVKKYGAVFLIGIGGNLTSGEPHDLRAPDYDDWSSPVSAADITFPCGDPTMNSLASLPGLNGDILVYNPVLDDVLELSSMGIRVDAETLRRQLTLLSNEDRLGYVWHKRLLAGEFPQTIGGGIGQSRLLMLLLKKKHIGEVQCSVWPKEMRQNYPLL
# notes: full ORF in pET28a(+), 6-His-tagged, expressed in E. coli BL21DE3, Ni purified; predicted dimer (homology model)
# B2: TbAS-A (Trypanosoma brucei brucei TREU927) (protein)
# chain: MGDDGYSSYVLLQEQILTVKRSFSEALEKELNLVEVRAPILFRVGDGTQDNLSGFEKAVQVPVKAIPNASFEVVHSLAKWKRRTLANYKFAPGHGLYTHMTALRVDDVLDNIHSVVVDQWDWEMVMKDDQRNLAFLKEVVCKVYAAIRKTELAVCEKYKQKPILPETIQFVHAEHLLLAYPNLTAKEREREIAREYGAVFLIGIGAVLSSGDRHDARAPDYDDWTSPVEASQVVFPRTSKPIPTMNSLSSLKGLNGDILLYNPTLDDSLEVSSMGIRVNAEALRHQISLTGDDSLLKSEWHQQLLNGEFPQTVGGGIGQSRMVMFMLRKKHIGEVQCSVWPEEIRKKHNLL
# notes: as for B1
# How the values were obtained:
# TcAS-A [1] = target: T1, TcAS-A (Trypanosoma cruzi, UniProt Q4CRM4); test: ninhydrin asparagine formation assay; assay type: biochemical
# T1 construct: gene Tc00.1047053503625.10; full ORF in pET28a(+), 6-His-tagged, expressed in E. coli BL21DE3, Ni purified; predicted dimer (homology model)
# T1 sequence (Q4CRM4 1-348): B1 chain
# TcAS-A [2] = target: T1, TcAS-A; test: ninhydrin asparagine formation assay, Km app method; assay type: biochemical
# TbAS-A [3] = target: T2, TbAS-A (Trypanosoma brucei, UniProt Q57WT9); test: ninhydrin asparagine formation assay; assay type: biochemical
# T2 construct: gene Tb07.27M11.260; full ORF in pET28a(+), 6-His-tagged, expressed in E. coli BL21DE3, Ni purified; predicted dimer (homology model)
# T2 sequence (Q57WT9 1-351): B2 chain
# TbAS-A [4] = target: T2, TbAS-A; test: ninhydrin asparagine formation assay, Km app method; assay type: biochemical
# purified protein = substrate: N; test: purified protein; settings: excess aspartate (>20 mM) and ATP (>10 mM), ammonia in solution as nitrogen donor, 8.4 mM Mg2+, 85 mM Tris-HCl, 37 °C
# [5] = substrate: N[C@@H](CC(=O)O)C(=O)O; test: ninhydrin asparagine formation assay; assay type: biochemical, Trypanosoma cruzi; settings: excess ATP (>10 mM) and ammonia (>50 mM), 8.4 mM Mg2+, 85 mM Tris-HCl, 37 °C
# From the text: (§1) ninhydrin asparagine formation assay on TcAS-A
# [6] = substrate: Nc1ncnc2c1ncn2[C@@H]1O[C@H](COP(=O)(O)OP(=O)(O)OP(=O)(O)O)[C@@H](O)[C@H]1O; test: ninhydrin asparagine formation assay; assay type: biochemical, Trypanosoma cruzi; settings: excess aspartate (>20 mM) and ammonia (>50 mM), 8.4 mM Mg2+, 85 mM Tris-HCl, 37 °C
# From the text: as §1
# [7] = substrate: NC(=O)CC[C@H](N)C(=O)O; test: ninhydrin asparagine formation assay; assay type: biochemical, Trypanosoma cruzi; settings: excess ATP and aspartate, glutamine as nitrogen donor, 8.4 mM Mg2+, 85 mM Tris-HCl, 37 °C
# From the text: as §1
# [8] = substrate: N[C@@H](CC(=O)O)C(=O)O; test: ninhydrin asparagine formation assay; assay type: biochemical, Trypanosoma brucei; settings: excess ATP (>10 mM) and ammonia (>50 mM), 8.4 mM Mg2+, 85 mM Tris-HCl, 37 °C
# From the text: (§2) ninhydrin asparagine formation assay on TbAS-A
# [9] = substrate: Nc1ncnc2c1ncn2[C@@H]1O[C@H](COP(=O)(O)OP(=O)(O)OP(=O)(O)O)[C@@H](O)[C@H]1O; test: ninhydrin asparagine formation assay; assay type: biochemical, Trypanosoma brucei; settings: excess aspartate (>20 mM) and ammonia (>50 mM), 8.4 mM Mg2+, 85 mM Tris-HCl, 37 °C
# From the text: as §2
# [10] = substrate: NC(=O)CC[C@H](N)C(=O)O; test: ninhydrin asparagine formation assay; assay type: biochemical, Trypanosoma brucei; settings: excess ATP and aspartate, glutamine as nitrogen donor, 8.4 mM Mg2+, 85 mM Tris-HCl, 37 °C
# From the text: as §2
molecule,measurement,setting,value
N[C@@H](CSS(=O)(=O)O)C(=O)O [L-cysteine-S-sulfate],IC50,TcAS-A [1],100 µM
same,Ki,TcAS-A [2],129 µM
same,IC50,TbAS-A [3],126 µM
same,Ki,TbAS-A [4],137 µM
B1,Km,purified protein,7.75 ± 1.55 mM
same,kcat,purified protein,2.45 s⁻¹
same,kcat/Km,purified protein,316 M⁻¹ s⁻¹
same,Km,[5],6.45 ± 2.05 mM
same,kcat,[5],2.41 ± 0.32 s⁻¹
same,kcat/Km,[5],374 M⁻¹ s⁻¹
same,Km,[6],0.72 ± 0.01 mM
same,kcat,[6],3.45 ± 0.02 s⁻¹
same,kcat/Km,[6],4790 M⁻¹ s⁻¹
same,Km,[7],15.33 ± 3.66 mM
same,kcat,[7],3.38 ± 0.41 s⁻¹
same,kcat/Km,[7],220 M⁻¹ s⁻¹
B2,Km,[8],5.39 ± 0.31 mM
same,kcat,[8],5.31 ± 0.11 s⁻¹
same,kcat/Km,[8],985 M⁻¹ s⁻¹
same,Km,[9],1.80 ± 0.32 mM
same,kcat,[9],6.22 ± 0.38 s⁻¹
same,kcat/Km,[9],3460 M⁻¹ s⁻¹
same,Km,[10],8.20 ± 1.70 mM
same,kcat,[10],5.58 ± 0.48 s⁻¹
same,kcat/Km,[10],680 M⁻¹ s⁻¹
same,Km,purified protein,5.55 ± 0.41 mM
same,kcat,purified protein,5.69 s⁻¹
same,kcat/Km,purified protein,1030 M⁻¹ s⁻¹
